test system: Escherichia coli TOP10; experiment: shrunken log2 fold change of peptide-encoding DNA abundance (4.5 h post-induction vs induction); higher = less antimicrobial activity (less host growth inhibition); conditions: time post-induction: 4.5 h; library: site-saturation at positions 5, 18, 19, 20
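Further: peptides expressed intracellularly from a pBAD plasmid library in pooled LB shake-flask culture, induced with 0.3% L-arabinose, DNA abundance read by NGS, three biological replicates, DESeq2 with apeglm shrinkage.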

| Sequence | shrunken log2 fold change |
| --- | --- |
| RRIRHRPPRLPRPRPRPRKMPRP | -0.246 |
| RRIRARPPRLPRPRPRPQGSPRP | 0.4 |
| RRIRIRPPRLPRPRPRPCPRPRP | -0.185 |
| RRIRRRPPRLPRPRPRPDFNPRP | -0.155 |
| RRIRTRPPRLPRPRPRPIISPRP | -0.0891 |
| RRIRSRPPRLPRPRPRPQMPPRP | 0.189 |
| RRIRLRPPRLPRPRPRPDWNPRP | -0.689 |
| RRIRVRPPRLPRPRPRPAMNPRP | -0.498 |
| RRIRCRPPRLPRPRPRPMQSPRP | -0.0765 |
| RRIRFRPPRLPRPRPRPHSVPRP | 0.036 |
| RRIRGRPPRLPRPRPRPIWWPRP | 0.922 |
| RRIRSRPPRLPRPRPRPPEYPRP | -0.154 |
| RRIRVRPPRLPRPRPRPHFPPRP | 0.046 |
| RRIRVRPPRLPRPRPRPHLNPRP | -0.455 |
| RRIRSRPPRLPRPRPRPKASPRP | -0.0199 |
| RRIRIRPPRLPRPRPRPEYKPRP | -0.978 |
| RRIRMRPPRLPRPRPRPLFQPRP | -0.279 |
| RRIRYRPPRLPRPRPRPENSPRP | -0.0207 |
| RRIRKRPPRLPRPRPRPHSAPRP | 0.246 |
| RRIRFRPPRLPRPRPRPIKKPRP | 0.0144 |
| RRIRGRPPRLPRPRPRPGKWPRP | 0.566 |
| RRIRKRPPRLPRPRPRPPGMPRP | 0.473 |

| Sequence | shrunken log2 fold change |
| --- | --- |
| RRIRYRPPRLPRPRPRPRMGPRP | -0.0782 |
| RRIRMRPPRLPRPRPRPMSRPRP | 0.0997 |
| RRIRPRPPRLPRPRPRPWDVPRP | 0.308 |
| RRIRVRPPRLPRPRPRPGHWPRP | 0.164 |
| RRIRFRPPRLPRPRPRPSNNPRP | -0.702 |
| RRIRYRPPRLPRPRPRPPYDPRP | -0.553 |
| RRIRERPPRLPRPRPRPTMCPRP | 0.292 |
| RRIRWRPPRLPRPRPRPYKSPRP | -0.144 |
| RRIRTRPPRLPRPRPRPHYKPRP | -0.531 |
| RRIRGRPPRLPRPRPRPVHTPRP | 0.174 |
| RRIRERPPRLPRPRPRPMAYPRP | -0.0427 |
| RRIRMRPPRLPRPRPRPQRRPRP | 0.799 |
| RRIRQRPPRLPRPRPRPAPHPRP | 0.343 |
| RRIRVRPPRLPRPRPRPMQFPRP | 0.0422 |
| RRIRGRPPRLPRPRPRPVYEPRP | 0.271 |
| RRIRHRPPRLPRPRPRPAQQPRP | -0.0312 |
| RRIRHRPPRLPRPRPRPTWKPRP | -0.011 |
| RRIRVRPPRLPRPRPRPFPWPRP | -0.0892 |
| RRIRNRPPRLPRPRPRPCRDPRP | -0.0123 |
| RRIRQRPPRLPRPRPRPLAIPRP | -0.122 |
| RRIRWRPPRLPRPRPRPIMHPRP | -0.174 |
| RRIRWRPPRLPRPRPRPQIYPRP | -0.000758 |

| Sequence | shrunken log2 fold change |
| --- | --- |
| RRIRVRPPRLPRPRPRPMETPRP | -0.074 |
| RRIRERPPRLPRPRPRPHMHPRP | -0.687 |
| RRIRYRPPRLPRPRPRPRMQPRP | -0.673 |
| RRIRARPPRLPRPRPRPIMNPRP | -0.151 |
| RRIRPRPPRLPRPRPRPGCFPRP | 0.158 |
| RRIRQRPPRLPRPRPRPWNDPRP | -0.373 |
| RRIRQRPPRLPRPRPRPLHLPRP | -0.617 |
| RRIRDRPPRLPRPRPRPDMNPRP | 0.287 |
| RRIRARPPRLPRPRPRPRMVPRP | 0.686 |
| RRIRSRPPRLPRPRPRPFRHPRP | -0.0389 |
| RRIRFRPPRLPRPRPRPYYWPRP | -0.485 |
| RRIRKRPPRLPRPRPRPVQFPRP | -0.0421 |
| RRIRNRPPRLPRPRPRPDNRPRP | -0.0135 |
| RRIRIRPPRLPRPRPRPFYMPRP | -0.235 |
| RRIRNRPPRLPRPRPRPEYMPRP | -0.0146 |
| RRIRRRPPRLPRPRPRPMNNPRP | -0.137 |
| RRIRFRPPRLPRPRPRPEYEPRP | -0.211 |
| RRIRGRPPRLPRPRPRPFQFPRP | 0.00963 |
| RRIRLRPPRLPRPRPRPPHRPRP | 0.182 |
| RRIRTRPPRLPRPRPRPGCPPRP | 0.086 |
| RRIRNRPPRLPRPRPRPWNIPRP | -0.0117 |
| RRIRFRPPRLPRPRPRPTWTPRP | -0.11 |

| Sequence | shrunken log2 fold change |
| --- | --- |
| RRIRYRPPRLPRPRPRPNYTPRP | -0.562 |
| RRIRIRPPRLPRPRPRPHRSPRP | 0.0394 |
| RRIRCRPPRLPRPRPRPNIGPRP | -0.138 |
| RRIRNRPPRLPRPRPRPPITPRP | 0.187 |
| RRIRTRPPRLPRPRPRPDPRPRP | 0.0663 |
| RRIRSRPPRLPRPRPRPVEKPRP | -0.0804 |
| RRIRERPPRLPRPRPRPQNMPRP | -1.05 |
| RRIRLRPPRLPRPRPRPKATPRP | -0.116 |
| RRIRLRPPRLPRPRPRPIEPPRP | 0.144 |
| RRIRKRPPRLPRPRPRPSFLPRP | 0.104 |
| RRIRARPPRLPRPRPRPMGGPRP | 0.0776 |
| RRIRSRPPRLPRPRPRPTWGPRP | 0.134 |
| RRIRIRPPRLPRPRPRPCVRPRP | -0.208 |
| RRIRERPPRLPRPRPRPWLDPRP | 0.121 |
| RRIRDRPPRLPRPRPRPIVWPRP | -0.0132 |
| RRIRIRPPRLPRPRPRPLCAPRP | -0.183 |
| RRIRERPPRLPRPRPRPPPTPRP | 0.518 |
| RRIRGRPPRLPRPRPRPSVIPRP | 0.159 |
| RRIRARPPRLPRPRPRPLQRPRP | 0.58 |
| RRIRCRPPRLPRPRPRPYGEPRP | -0.432 |
| RRIRRRPPRLPRPRPRPTMSPRP | 0.315 |
| RRIRPRPPRLPRPRPRPGQHPRP | 0.0653 |

| Sequence | shrunken log2 fold change |
| --- | --- |
| RRIRARPPRLPRPRPRPRIFPRP | 0.213 |
| RRIRCRPPRLPRPRPRPCTIPRP | 0.105 |
| RRIRFRPPRLPRPRPRPNPMPRP | -0.136 |
| RRIRQRPPRLPRPRPRPAMNPRP | -0.115 |
| RRIRLRPPRLPRPRPRPKSSPRP | 0.0397 |
| RRIRGRPPRLPRPRPRPREPPRP | 0.812 |
| RRIRRRPPRLPRPRPRPRDCPRP | 0.177 |
| RRIRCRPPRLPRPRPRPWTNPRP | -0.0849 |
| RRIRARPPRLPRPRPRPNMIPRP | -0.194 |
| RRIRGRPPRLPRPRPRPGDAPRP | 1.09 |
| RRIRARPPRLPRPRPRPTGYPRP | 0.191 |
| RRIRTRPPRLPRPRPRPMRNPRP | 0.356 |
| RRIRIRPPRLPRPRPRPKEIPRP | -0.113 |
| RRIRIRPPRLPRPRPRPVFTPRP | -0.305 |
| RRIRKRPPRLPRPRPRPTMMPRP | 0.316 |
| RRIRARPPRLPRPRPRPEHIPRP | -0.185 |
| RRIRFRPPRLPRPRPRPRYGPRP | -0.299 |
| RRIRLRPPRLPRPRPRPRCHPRP | -0.277 |
| RRIRLRPPRLPRPRPRPDMSPRP | -0.428 |
| RRIRTRPPRLPRPRPRPVRKPRP | 0.00119 |
| RRIRVRPPRLPRPRPRPVNWPRP | 0.27 |

Reference: the supplement of paper PMC9112550, “Optimization of the antimicrobial peptide Bac7 by deep mutational scanning” (BMC Biology, 2022)
